T1: recombinant monkey TfR (r monkey TfR: Sino Biological Inc.) (cynomolgus monkey (Macaca fascicularis), UniProt Q5RDH6 89-760 (Pongo abelii entry))
T1 construct: Bought product; also called r monkey TfR-ECD (Histag); cynomolgus monkey TfR; not shown: histidine tag attached to the N-terminus
T1 chain: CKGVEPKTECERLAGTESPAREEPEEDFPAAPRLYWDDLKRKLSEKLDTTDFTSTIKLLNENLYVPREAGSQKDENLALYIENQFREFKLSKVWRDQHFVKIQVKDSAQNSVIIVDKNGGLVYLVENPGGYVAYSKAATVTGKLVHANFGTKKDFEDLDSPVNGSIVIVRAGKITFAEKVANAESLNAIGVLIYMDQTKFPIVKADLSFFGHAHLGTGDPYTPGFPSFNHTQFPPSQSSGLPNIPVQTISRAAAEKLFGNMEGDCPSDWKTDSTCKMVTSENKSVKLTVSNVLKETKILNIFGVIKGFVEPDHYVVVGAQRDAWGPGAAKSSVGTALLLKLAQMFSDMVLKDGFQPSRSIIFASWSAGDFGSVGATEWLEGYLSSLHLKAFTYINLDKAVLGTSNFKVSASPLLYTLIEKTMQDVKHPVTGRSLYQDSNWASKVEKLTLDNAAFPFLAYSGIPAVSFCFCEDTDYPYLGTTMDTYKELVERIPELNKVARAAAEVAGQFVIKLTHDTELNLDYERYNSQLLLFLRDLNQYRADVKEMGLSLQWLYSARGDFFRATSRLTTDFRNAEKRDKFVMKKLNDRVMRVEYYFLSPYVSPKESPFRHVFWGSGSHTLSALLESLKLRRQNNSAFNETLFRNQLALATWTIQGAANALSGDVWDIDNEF

B1: hBDNF-anti-hTfR antibody 7 (other)
heavy: HSDPARRGELSVCDSISEWVTAADKKTAVDMSGGTVTVLEKVPVSKGQLKQYFYETKCNPMGYTKEGCRGIDKRHWNSQCRTTQSYVRALTMDSKKRIGWRFIRIDTSCVCTLTIKRGRGSGGGGSGGGGSGGGGSGGGGSGGGGSEVQLVQSGAEVKKPGESLKISCKGSGYSFTNYWLGWVRQMPGKGLEWMGDIYPGGDYPTYSEKFKVQVTISADKSISTAYLQWSSLKASDTAMYYCARSGNYDEVAYWGQGTLVTVSSASTKGPSVFPLAPSSKSTSGGTAALGCLVKDYFPEPVTVSWNSGALTSGVHTFPAVLQSSGLYSLSSVVTVPSSSLGTQTYICNVNHKPSNTKVDKKVEPKSCDKTHT
light: DIVMTQTPLSLSVTPGQPASISCRSSQSLVHSNGNTYLHWYLQKPGQSPQLLIYKVSNRFSGVPDRFSGSGSGTDFTLKISRVEAEDVGVYYCSQSTHVPWTFGQGTKVEIKRTVAAPSVFIFPPSDEQLKSGTASVVCLLNNFYPREAKVQWKVDNALQSGNSQESVTEQDSKDSTYSLSSTLTLSKADYEKHKVYACEVTHQGLSSPVTKSFNRGEC
B2: humanized anti-hTfR antibody No. 3-4 (antibody, human IgG1, kappa, V domains shown)
VH: EVQLVQSGAEVKKPGESLKISCKGSGYSFTNYWLGWVRQMPGKGLEWMGDIYPGGDYPTYSEKFKVQVTISADKSISTAYLQWSSLKASDTAMYYCARSGNYDEVAYWGQGTLVTVSS
VL: DIVMTQTPLSLSVTPGQPASISCRSSQSLVHSNGNTYLHWYLQKPGQSPQLLIYKVSNRFSGVPDRFSGSGSGTDFTLKISRVEAEDVGVFFCSQSTHVPWTFGQGTKVEIKR
notes: IgG1
B3: humanized anti-hTfR antibody No. 3-2 (antibody, human IgG1, kappa)
heavy: not shown
light: DIVMTQSPLSLPVTPGEPASISCRSSQSLVHSNGNTYLHWYLQKPGQSPQLLIYKVSNRFSGVPDRFSGSGSGTDFTLKISRVEAEDVGVYYCSQSTHVPWTFGQGTKVEIKRTVAAPSVFIFPPSDEQLKSGTASVVCLLNNFYPREAKVQWKVDNALQSGNSQESVTEQDSKDSTYSLSSTLTLSKADYEKHKVYACEVTHQGLSSPVTKSFNRGEC
notes: IgG1
B4: humanized anti-hTfR antibody No. 3-3 (antibody, human IgG1, kappa)
heavy: not shown
light: DIVMTQTPLSLPVTPGEPASISCRSSQSLVHSNGNTYLHWYLQKPGQSPQLLIYKVSNRFSGVPDRFSGSGSGTDFTLKISRVEAEDVGVYYCSQSTHVPWTFGQGTRLEIKRTVAAPSVFIFPPSDEQLKSGTASVVCLLNNFYPREAKVQWKVDNALQSGNSQESVTEQDSKDSTYSLSSTLTLSKADYEKHKVYACEVTHQGLSSPVTKSFNRGEC
notes: IgG1
B5: humanized anti-hTfR antibody No. 2 (antibody, human IgG1, kappa, V domains shown)
VH: QVQLVQSGAEVKKPGASVKVSCKASGYTFTDYVMHWVRQAPGQGLEWIGVISTYYGHGSYNQRFKGRATMTVDKSISTAYMELVRLRSDDTAVYYCVRGGYGSSSLAGNFDVWGQGTTVTVSS
VL: EIVLTQSPDFQSVTPKEKVTITCRASQSISNNLQWYQQKPDQSPKLLIKYASQSISGIPSRFSGSGSGTDFTLTINSLEAEDAATYLCQQSNSWPRTFGQGTKVEIKR
notes: IgG1; expressed in CHO-K1, purified on Protein A
B6: hBDNF-anti-hTfR antibody 5 (other)
chain: HSDPARRGELSVCDSISEWVTAADKKTAVDMSGGTVTVLEKVPVSKGQLKQYFYETKCNPMGYTKEGCRGIDKRHWNSQCRTTQSYVRALTMDSKKRIGWRFIRIDTSCVCTLTIKRGRGSGGGGSGGGGSGGGGSGGGGSGGGGSEVQLVQSGAEVKKPGESLKISCKGSGYSFTNYWLGWVRQMPGKGLEWMGDIYPGGDYPTYSEKFKVQVTISADKSISTAYLQWSSLKASDTAMYYCARSGNYDEVAYWGQGTLVTVSSGGGGSGGGGSGGGGSDIVMTQTPLSLSVTPGQPASISCRSSQSLVHSNGNTYLHWYLQKPGQSPQLLIYKVSNRFSGVPDRFSGSGSGTDFTLKISRVEAEDVGVYYCSQSTHVPWTFGQGTKVEIK
B7: humanized anti-hTfR antibody No. 1 (antibody, human IgG1, kappa, V domains shown)
VH: EVQLVESGGGLVQPGGSLRLSCAASGLTFSNYGMSWVRQAPGKGLELVANINTNGGSTYYPDSVKGRFTISRDNAKNSLYLQMNSLRAEDTAVYYCTNNRYDEDYWGQGTLVTVSS
VL: DIQVTQSPSFLSASVGDRVTITCKASQDVNSAVAWFQQKPGKAPKLLIYWTSTRHTGVPDRFSGSGSGTVYTLTISSLQPEDFATYYCQQHYSTPRTFGGGTKVEIKR
notes: as for B5
B8: anti-hTfR antibody No. 3 (antibody, V domains shown)
VH: EVQLQESGAELVRPGTSVKISCKASGYTFMNYWLGWVKQRPGHGLEWIGDIYPGGDYPTYSEKFKVKAILTADTSSSSVYLHLSSLTSEDSAVYFCARSGNYDEVAYWGQGTLVTVST
VL: DIVMTQTTLSLPVSLGDQASISCRSSQSLVHSNGNTYLHWYLQKPGQSPKLLIYKVSNRFSGVPDRFSGSGSGTDFTLKISRVEAEDLGVFFCSQSTHVPWTFGGGTKLEIKR
notes: Mouse hybridoma antibody purified on Protein G; also called mouse anti-hTfR antibody No. 3; product of Clone 3 line

Columns and labels:
[1] = biological target: human TrkB (GenBank Acc. No. NP_001018074.1) expressed in CHO cells (human, UniProt Q16620 32-822); assay: cell-based or functional assay
[2] = biological target: T1, recombinant monkey TfR (r monkey TfR: …); assay: BLI (Octet RED96), method of Example 7, His-tagged TfR ECD on Ni-NTA sensor
Experimental: (§1) Each of the antibodies (anti-hTfR antibody Nos. 1 to 14) purified above was subjected to 2-fold dilution steps with HBS-P+(10 mM HEPES containing 150 mM NaCl, 50 μM EDTA and 0.05% Surfactant P20) to prepare antibody solutions of 7 different concentrations, 0.78125 to 50 nM (0.117 to 7.5 μg/mL). These antibody solutions were used as the sample solutions. The r human and r monkey TfRs were respectively diluted with HBS-P+ to prepare 25 μg/mL solutions, which were used as r human TfR-ECD (Histag) solution and r monkey TfR-ECD (Histag) solution, respectively.
(§2) Each of the sample solutions prepared above by 2-fold dilution steps was added, 200 μL/well, to a 96-well plate, black (Greiner Bio-One Inc.). Each of the r human TfR-ECD (Histag) solution and the r monkey TfR-ECD (Histag) solutions prepared above was added, 200 μL/well, to predetermined wells. To respective wells for baseline, dissociation and washing were added HBS-P+, 200 μL/well. To wells for regeneration were added 10 mM Glycine-HCl, pH 1.7, 200 μL/well. To wells for activation was added 0.5 mM NiCl₂ solution, 200 μL/well. The plate and biosensor (Biosensor/Ni-NTA: ForteBio Inc., a division of Pall Corporation) were set in the prescribed positions of Octet RED96. […] The measurement was performed at 25 to 30° C.
(§3) The affinity of the humanized anti-hTfR antibodies obtained in Example 13 to human and monkey TfRs was measured by the method described in Example 7.

[3] = biological target: T2, recombinant human TfR (r human TfR: Sino Biological Inc.) (human, UniProt P02786 89-760); assay: as above
T2 construct: Bought product; also called r human TfR-ECD (Histag); hTfR; not shown: histidine tag attached to the N-terminus
Experimental: as §1, §2, §3

[4] = biological target: T1, recombinant monkey TfR (r monkey TfR: …); assay: BLI (Octet RED96), His-tagged TfR ECD loaded on Ni-NTA sensor, antibody as analyte
Experimental: (§4) By measuring the variations of this shift between the interfering waves, determination of the number of the molecules bound to the layer of the biomolecules immobilized to the sensor tip surface and kinetic analysis of it can be performed in real time. The measurement was performed according generally to the operating manual attached to Octet RED96. As a human TfR, a recombinant human TfR (r human TfR: Sino Biological Inc.) was used, which had the amino acid sequence of the hTfR extracellular region, i.e., the cysteine residue at the position 89th from the N-terminal side to the phenylalanine at the C-terminus, of the amino acid sequence set forth as SEQ ID NO:1, with a histidine tag attached to the N-terminus. As a monkey TfR, a recombinant monkey TfR (r monkey TfR: Sino Biological Inc.) was used, which had the amino acid sequence of the cynomolgus monkey TfR extracellular region, i.e., the cysteine residue at the position 89th from the N-terminal side to the phenylalanine at the C-terminus, of the amino acid sequence set forth as SEQ ID NO:2, with a histidine tag attached to the N-terminus.
as §1
(§5) Each of the sample solutions prepared above by 2-fold dilution steps was added, 200 μL/well, to a 96-well plate, black (Greiner Bio-One Inc.). Each of the r human TfR-ECD (Histag) solution and the r monkey TfR-ECD (Histag) solutions prepared above was added, 200 μL/well, to predetermined wells. To respective wells for baseline, dissociation and washing were added HBS-P+, 200 μL/well. To wells for regeneration were added 10 mM Glycine-HCl, pH 1.7, 200 μL/well. To wells for activation was added 0.5 mM NiCl₂ solution, 200 μL/well. The plate and biosensor (Biosensor/Ni-NTA: ForteBio Inc., a division of Pall Corporation) were set in the prescribed positions of Octet RED96.

[5] = biological target: T2, recombinant human TfR (r human TfR: …); assay: as above
Experimental: as §4, §1, §5

Sequence of human TrkB (GenBank Acc. No. NP_001018074.1) expressed in CHO cells (Q16620 32-822): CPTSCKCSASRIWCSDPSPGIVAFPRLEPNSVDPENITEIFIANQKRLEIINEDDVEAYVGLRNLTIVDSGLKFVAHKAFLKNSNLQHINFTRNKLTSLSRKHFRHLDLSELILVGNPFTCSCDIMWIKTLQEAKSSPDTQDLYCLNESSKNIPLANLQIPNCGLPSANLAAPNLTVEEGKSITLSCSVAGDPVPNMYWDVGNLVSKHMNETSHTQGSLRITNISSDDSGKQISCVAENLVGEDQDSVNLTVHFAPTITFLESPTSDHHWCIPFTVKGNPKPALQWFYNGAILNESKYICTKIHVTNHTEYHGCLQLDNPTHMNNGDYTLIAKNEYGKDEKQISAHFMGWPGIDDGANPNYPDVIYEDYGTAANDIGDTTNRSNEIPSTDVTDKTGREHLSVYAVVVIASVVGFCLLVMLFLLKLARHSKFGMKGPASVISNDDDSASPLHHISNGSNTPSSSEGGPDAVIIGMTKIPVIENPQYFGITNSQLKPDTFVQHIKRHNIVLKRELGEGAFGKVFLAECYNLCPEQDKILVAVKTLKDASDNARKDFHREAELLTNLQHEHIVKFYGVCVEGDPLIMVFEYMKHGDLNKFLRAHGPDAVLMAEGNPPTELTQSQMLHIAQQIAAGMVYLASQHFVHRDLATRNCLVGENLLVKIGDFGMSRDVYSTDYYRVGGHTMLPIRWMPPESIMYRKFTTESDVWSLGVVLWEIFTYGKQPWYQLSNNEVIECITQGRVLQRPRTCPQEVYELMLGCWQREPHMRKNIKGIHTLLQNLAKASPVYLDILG

| Binder | BDNF activity (TrkB agonistic EC50, nmol/L) [1] [nmol/L] | Kd [2] [nM] | koff [2] [s⁻¹] | kon [2] [M⁻¹ s⁻¹] | Kd [3] [nM] | koff [3] [s⁻¹] | kon [3] [M⁻¹ s⁻¹] | Kd [4] [pM] | koff [4] [s⁻¹] | kon [4] [M⁻¹ s⁻¹] | Kd [5] [pM] | koff [5] [s⁻¹] | kon [5] [M⁻¹ s⁻¹] |
| --- | --- | --- | --- | --- | --- | --- | --- | --- | --- | --- | --- | --- | --- |
| B1 | 0.23 |  |  |  |  |  |  |  |  |  |  |  |  |
| B2 |  | 0.26 | 0.000135 | 519000 | < 0.001 | < 1e-07 | 1.01e+06 |  |  |  |  |  |  |
| B3 |  | 1.77 | 0.000876 | 495000 | 0.0239 | 1.45e-05 | 606000 |  |  |  |  |  |  |
| B4 |  | 1.91 | 0.000932 | 488000 | 0.0209 | 1.25e-05 | 600000 |  |  |  |  |  |  |
| B5 |  | 0.0755 | 3.67e-05 | 487000 | < 0.001 | < 1e-07 | 197000 |  |  |  |  |  |  |
| B6 | 0.092 |  |  |  |  |  |  |  |  |  |  |  |  |
| B7 |  | < 0.001 | < 1e-07 | 253000 | < 0.001 | < 1e-07 | 393000 |  |  |  |  |  |  |
| B8 |  |  |  |  |  |  |  | < 1 | < 1e-07 | 389000 | < 1 | < 1e-07 | 653000 |

— patent US20240262926A1 (published 2024)
